{
  "source": "paper PMC5550728",
  "about": "“Retinoschisin Facilitates the Function of L-Type Voltage-Gated Calcium Channels” (Frontiers in Cellular Neuroscience, 2017)",
  "biological_target": "T1, human full-length RS1 fused to the GAL4 DNA binding domain (pBind-RS1) (human, UniProt O15537 1-224)",
  "T1 construct": "224 amino acids), so with its own signal peptide in the construct; source: Cos1 cells, transfected (mammalian two-hybrid fusion)",
  "T1 sequence (looked up)": "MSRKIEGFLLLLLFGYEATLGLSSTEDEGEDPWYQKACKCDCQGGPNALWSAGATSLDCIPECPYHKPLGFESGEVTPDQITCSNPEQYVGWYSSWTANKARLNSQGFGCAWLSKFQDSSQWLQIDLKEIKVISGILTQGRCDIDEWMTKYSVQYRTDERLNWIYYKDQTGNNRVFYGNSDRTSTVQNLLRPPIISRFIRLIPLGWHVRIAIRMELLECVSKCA",
  "assay": "two-hybrid; mammalian two-hybrid (luciferase reporter) in Cos1 cells: pBind-RS1 (GAL4 DNA binding domain, bait), pACT-Cav1.4-N terminal (VP16 activation domain), pG5Luc, 100 ng each; controls with empty pBind or pACT; n = 6",
  "settings": "partners not purified",
  "data": [
    {"binder": "human Cav1.4 N-terminal fragment fused to the VP16 activation domain (pACT-Cav1.4-N terminal) (domain or fragment, the methods give 1-1481 bp from ATG, which is about 493 codons; the exact C-terminal limit follows from the reverse primer; also called hCav1.4-N; source: Cos1 cells, transfected (mammalian two-hybrid fusion)) not shown", "values": [
      {"measurement": "relative luciferase activity, fold over the controls", "value": "≥ 4", "unit": "fold"}
    ]}
  ]
}
